Drawing on article PMC5382265, “Macrocycle peptides delineate locked-open inhibition mechanism for microorganism phosphoglycerate mutases” (Nature Communications, 2017), this text covers IC50 of inhibition of PGM activity, enzyme-coupled bioluminescent assay for one substance.

The target of this experiment is C. elegans cofactor-independent phosphoglycerate mutase (iPGM) (C. elegans) (UniProt G5EFZ1).

The substance Ce-2S (Ce-2 with Cys14Ser) (peptide) yielded an IC50 of inhibition of PGM activity, enzyme-coupled bioluminescent assay of 10 nM.
